Assay results taken from the supplement of paper PMC9170038.

Test system: MS2 coat protein
Experiment: apparent KD of MS2 coat protein; designed switch direction (-1 OFF switch, 1 ON switch): -1; higher = weaker reporter binding
How it was run: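 Designed RNA switches with common flanks were made on Illumina chips by stalled E. coli RNA polymerase. Titration with SNAP-549-labelled MS2 coat protein doubled from 0.7 or 1.5 nM up to 3 µM. Apparent KD is each design's median over clusters after curve-fitting normalised fluorescence.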

[1] = Eterna round: R95, input ligand: FMN 200 uM
[2] = Eterna round: R95, input ligand: microRNA oligo, concentration not stated
[3] = Eterna round: R95, input ligand: none
[4] = input ligand: microRNA oligo, concentration not stated

AGAACAUCAGGAUAUCCAUGACACUACAUGAGGAUCACCCAUGUGAAUCUCCUCAAGGCGGGAGAAGGGAUGUUUG [Eternabot (L1) Solution 34] (Eterna round: R97, puzzle: Exclusion 5)
apparent KD of MS2 coat protein (input ligand: FMN 200 uM): 272 nM
apparent KD of MS2 coat protein (input ligand: none): 86.7 nM

AGACACUGAGGAUAUACAUGAGGAUCACCCAUGUAUGGGAAAUACGAAUGUAUUAGUUGUAGAAGGUGGUGUCG [Eternabot (L1) Solution 10] (Eterna round: R97, puzzle: Exclusion 3)
apparent KD of MS2 coat protein (input ligand: FMN 200 uM): 183 nM
apparent KD of MS2 coat protein (input ligand: none): 199 nM

AGACACUUAGGAUAUCAGGCAAUGCACAUGAGGAUCACCCAUGUGGUCUUGGUCCGGGACUGAGAAGGAAGAGUCC [EX5 B.10] (Eterna round: R97, puzzle: Exclusion 5)
apparent KD of MS2 coat protein (input ligand: FMN 200 uM): 20.1 nM
apparent KD of MS2 coat protein (input ligand: none): 19 nM

AGACAGUCAGGAUAUACAUGAGGAUCACCCAUGUUAAGAAAAGAAAGGGCAGGAAGAGGUAGAAGGGACAAGAA [JR_Exclu3_Sub032] (puzzle: Exclusion 3)
apparent KD of MS2 coat protein [1]: 28.8 nM
apparent KD of MS2 coat protein [2]: 28.5 nM
apparent KD of MS2 coat protein [3]: 32.8 nM

AGACUGCUGCGAGGAUAUACAUGAGGAUCACCCAUGUUUUCCUGUGAGGCAUAGCCUCACAGGAUGUAGAAGGCGCAGUAGUCA [Mat - Exclusion NG 2 - Mod of JL - D30] (Eterna round: R96, puzzle: Exclusion NG 2)
apparent KD of MS2 coat protein (input ligand: FMN 200 uM): 13.8 nM
apparent KD of MS2 coat protein [4]: 11.2 nM
apparent KD of MS2 coat protein (input ligand: none): 11.9 nM

AGAGAAUACUCAGGAUAUCUGAAUAGAAAGAGAAGAGAAGGGAGACAUGAGGAUCACCCAUGUGAAGUCUUGAGGCUGCAUGGA [Prohibition 25 - Jieux - Exclusion NG 1] (Eterna round: R96, puzzle: Exclusion NG 1)
apparent KD of MS2 coat protein (input ligand: FMN 200 uM): 83.5 nM
apparent KD of MS2 coat protein [4]: 145 nM
apparent KD of MS2 coat protein (input ligand: none): 106 nM

AGAGAAUAGUCAGGAUAUGUGAAUAGAUAGAGAACAGAAGGGACACAUGAGGAUCACCCAUGUGAAGUCUUGAGGCUGCGUGGA [Prohibition 21 - Jieux - Exclusion NG 1] (Eterna round: R96, puzzle: Exclusion NG 1)
apparent KD of MS2 coat protein (input ligand: FMN 200 uM): 22.1 nM
apparent KD of MS2 coat protein [4]: 17.5 nM
apparent KD of MS2 coat protein (input ligand: none): 20.3 nM

AGAGAGUCAGGAUAUCGGAGGGCGAGGAGAGGAGAGAGAGACGAGAAGGGACAUGAGGAUCACCCAUGUAGGUG [JR_Exclusion4)Sub018] (puzzle: Exclusion 4)
apparent KD of MS2 coat protein [1]: 197 nM
apparent KD of MS2 coat protein [2]: 268 nM
apparent KD of MS2 coat protein [3]: 400 nM

AGAGUGCUGCGAGGAUAUACAUGAGGAUCACCCAUGUUUUCGUGUGAGGCAAAGCCUCACACGAUGUAGAAGGCGCAGUACUCA [Mat - Exclusion NG 2 - Mod of JL - D36] (Eterna round: R96, puzzle: Exclusion NG 2)
apparent KD of MS2 coat protein (input ligand: FMN 200 uM): 13.2 nM
apparent KD of MS2 coat protein [4]: 9.73 nM
apparent KD of MS2 coat protein (input ligand: none): 14.6 nM

AGAGUGGAGACAGGAUAUGAGAAUAGAUAGAAAUCAGAAGGGUCACAUGAGGAUCACCCAUGUAAAGUCUUGAGGAUGAGUGAU [Prohibition 1 - Jieux - Exclusion NG1] (Eterna round: R96, puzzle: Exclusion NG 1)
apparent KD of MS2 coat protein (input ligand: FMN 200 uM): 156 nM
apparent KD of MS2 coat protein [4]: 65.3 nM
apparent KD of MS2 coat protein (input ligand: none): 81.7 nM

AGAUAGUGCUGAGGAUAUCAGAAUAGAAAGAAAUGAGAAGGCGGACAUGAGGAUCACCCAUGUGAGGUCUUGAGACUACAUGGU [Prohibition 38 - Jieux - Exclusion NG 1] (Eterna round: R96, puzzle: Exclusion NG 1)
apparent KD of MS2 coat protein (input ligand: FMN 200 uM): 210 nM
apparent KD of MS2 coat protein [4]: 65.8 nM
apparent KD of MS2 coat protein (input ligand: none): 77.3 nM
